This is an account of results in the supplement of paper PMC7877785.

± gives the uncertainty stated by the source.

This series is described as follows: self-splicing fitness, log relative to wild type (ln ratio); higher = more splicing; Tetrahymena group I intron in knt gene, E. coli kanamycin selection, DiMSum; sequences stand for … in CUCUCU…GGAGGGAAAAGUUAUCAGGCAUGCACCUGGUAGCUAGUCUUUAAACCAAUAGAUUGCAUCGGUUUAAAAGGCAAGACCGUCAAAUUGCGGGAAAGGGGUCAACAGCCGUUCAGUACCAAGUCUCAGGGGAAACUUUGAGAUGGCCUUGCAAAGGGUAUGGUAAUAAGCUGACGGACAUGGUCCUAACCACGCAGCCAAGUCCUAAGUCAACAGAUCUUCUGUUGAUAUGGAUGCAGUUCACAGACUAAAUGUCGGUCGGGGAAGAUGUAUUCUUCUCAUAAGAUAUAGUCGGACCUCUCCUUAAUGGGAGCUAGCGGAUGAAGUGAUGCAACACUGGAGCCGCUGGGAACUAAUUUGUAUGCGAAAGUAUAUUGAUUAGUUUUGGAGUACUCGUGGUCG
The procedure, abridged:
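A randomised library covering all eight P1ex-region intron nucleotides was built with the intron in the knt kanamycin-resistance gene on pET-22b(+) and held in E. coli BL21(DE3). Cells were grown overnight at 37°C or 30°C on LB agar, with or without 25 μg/mL kanamycin, plus 100 μg/mL carbenicillin, 50 μM IPTG and 0.2% rhamnose, and pooled colonies were amplicon-sequenced on an Illumina HiSeq 2500. DiMSum fitness is the error-weighted combination of wild-type-normalised replicate fold changes, kanamycin versus none.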

Consider GAAUAGCAAUAUUACGGAGG, for which the “self-splicing fitness (ln)” value by setting is: (30 °C) -4.24 ± 0.3; (37 °C) -2.27 ± 0.22.
For CCAAAGCAAUAUUACGGGAC, in that order: -4.28 ± 0.3 and -3.32 ± 0.46.
In the same order, the values of AAUUAGCAAUAUUACGCCAU are -2.49 ± 0.19 and -1.04 ± 0.16.
For CAAGAGCAAUAUUACGUUUG, in that order: -2.75 ± 0.21 and -2.37 ± 0.24.
Consider CUUAAGCAAUAUUACGUUAG, for which the “self-splicing fitness (ln)” value (30 °C) was -3.59 ± 0.23 and the “self-splicing fitness (ln)” value (37 °C) was -1.59 ± 0.17.
As to GGCUAGCAAUAUUACGAUGG, under “37 °C”, the “self-splicing fitness (ln)” value was -2.46 ± 0.23.
For UAACAGCAAUAUUACGACCA, the “self-splicing fitness (ln)” value (30 °C) is -0.808 ± 0.08 and the “self-splicing fitness (ln)” value (37 °C) was determined as 0.224 ± 0.11.
In the same order, the values of GUCAAGCAAUAUUACGCUGG are -4.08 ± 0.28 and -3.72 ± 0.29.
For CCCUAGCAAUAUUACGUCAG, in that order: -3.8 ± 0.18 and -2.91 ± 0.18.
In the same order, the values of UCAAAGCAAUAUUACGGGAC are -1.98 ± 0.2 and -1.75 ± 0.25.
Regarding UCGCAGCAAUAUUACGGUAG, the “self-splicing fitness (ln)” value is, setting by setting: (30 °C) -2.49 ± 0.086; (37 °C) -0.887 ± 0.086.
For the sequence GGAGAGCAAUAUUACGGUAU, the “self-splicing fitness (ln)” value (37 °C) is -2.2 ± 0.34.
Turning to GUUAAGCAAUAUUACGGUCA, the “self-splicing fitness (ln)” value is, setting by setting: (30 °C) -0.91 ± 0.098; (37 °C) -0.943 ± 0.092.
Turning to CCCAAGCAAUAUUACGCUAC, the “self-splicing fitness (ln)” value runs as follows: (30 °C) -4.17 ± 0.39; (37 °C) -3.04 ± 0.38.
For AAAUAGCAAUAUUACGUCAC, in that order: -4.4 ± 0.42 and -2.53 ± 0.28.
For UCCUAGCAAUAUUACGUCUU, in that order: -4.03 ± 0.23 and -2.05 ± 0.14.
For UAGAAGCAAUAUUACGCUGU, in that order: -3.73 ± 0.26 and -0.977 ± 0.15.
With UGCGAGCAAUAUUACGGGAA, the “self-splicing fitness (ln)” value by setting is: (30 °C) -3.87 ± 0.38; (37 °C) -2.5 ± 0.24.
For CGGAAGCAAUAUUACGAUGG, in that order: -0.404 ± 0.096 and 0.233 ± 0.13.
In the same order, the values of CAAAAGCAAUAUUACGCGGC are -2.85 ± 0.21 and -2.21 ± 0.28.
Turning to CUCGAGCAAUAUUACGCUGA, the “self-splicing fitness (ln)” value runs as follows: (30 °C) -2.4 ± 0.43; (37 °C) -0.491 ± 0.3.
For AUGUAGCAAUAUUACGUCUU, in that order: -1.62 ± 0.13 and -0.0792 ± 0.13.
Regarding UUCGAGCAAUAUUACGUAAG, the “self-splicing fitness (ln)” value is -3.03 ± 0.36 (30 °C) and -3.24 ± 0.42 (37 °C).
In the same order, the values of GCAUAGCAAUAUUACGCUUA are -1.6 ± 0.14 and -1.18 ± 0.1.
For AACGAGCAAUAUUACGCCGU, in that order: -3.6 ± 0.18 and -1.88 ± 0.16.
CGGUAGCAAUAUUACGCGGA: the “self-splicing fitness (ln)” value is -2.54 ± 0.12 (30 °C) and -1.26 ± 0.097 (37 °C).
For CUGGAGCAAUAUUACGCGUG, in that order: -3.27 ± 0.15 and 0.32 ± 0.12.
For AAAUAGCAAUAUUACGCCCA, in that order: -0.102 ± 0.18 and -0.392 ± 0.17.
As to GAAUAGCAAUAUUACGUCUC, the “self-splicing fitness (ln)” value is -0.581 ± 0.11 (30 °C) and -0.137 ± 0.16 (37 °C).
In the same order, the values of UCGAAGCAAUAUUACGCAUU are -1.97 ± 0.19 and -2.46 ± 0.26.
In the same order, the values of UCUUAGCAAUAUUACGUGAC are -2.81 ± 0.18 and -3.32 ± 0.4.
In the same order, the values of CACGAGCAAUAUUACGAAUG are -2.66 ± 0.11 and -2.17 ± 0.16.
Consider GAUGAGCAAUAUUACGCAGU, for which the “self-splicing fitness (ln)” value (30 °C) is -3.61 ± 0.3 and the “self-splicing fitness (ln)” value (37 °C) was -2.44 ± 0.33.
For CCUAAGCAAUAUUACGGGAG, in that order: -4.51 ± 0.24 and -2.93 ± 0.21.
On to UGGAAGCAAUAUUACGGGAC, for which the “self-splicing fitness (ln)” value reads like this: (30 °C) -2.63 ± 0.21; (37 °C) -3.26 ± 0.32.
Regarding AUGUAGCAAUAUUACGGCGU, the “self-splicing fitness (ln)” value runs as follows: (30 °C) -1.14 ± 0.11; (37 °C) -0.716 ± 0.094.
For GGUGAGCAAUAUUACGUUAG, in that order: -3.01 ± 0.2 and -2.83 ± 0.3.
In the same order, the values of GGCGAGCAAUAUUACGCAAG are -2.96 ± 0.34 and -2.3 ± 0.24.
In the same order, the values of AUAAAGCAAUAUUACGGUCC are -0.883 ± 0.14 and -0.458 ± 0.17.
For the sequence CGUUAGCAAUAUUACGGGUC, the “self-splicing fitness (ln)” value (30 °C) was -3.39 ± 0.41 and the “self-splicing fitness (ln)” value (37 °C) is -2.01 ± 0.24.
Take UGAAAGCAAUAUUACGUGGA: the “self-splicing fitness (ln)” value is -2.89 ± 0.15 (30 °C) and -2.69 ± 0.18 (37 °C).
Take GCGCAGCAAUAUUACGACAU: the “self-splicing fitness (ln)” value was -0.277 ± 0.012 (30 °C) and 0.253 ± 0.032 (37 °C).
For the sequence GCGGAGCAAUAUUACGGUAU, the “self-splicing fitness (ln)” value (30 °C) was -3.38 ± 0.24 and the “self-splicing fitness (ln)” value (37 °C) was -2.95 ± 0.26.
UCAAAGCAAUAUUACGCAAG: the “self-splicing fitness (ln)” value (30 °C) was -2.18 ± 0.14 and the “self-splicing fitness (ln)” value (37 °C) is -1.48 ± 0.15.
For UAUCAGCAAUAUUACGUGGA, the “self-splicing fitness (ln)” value by setting is: (30 °C) -1.05 ± 0.098; (37 °C) -0.739 ± 0.099.
In the same order, the values of ACCCAGCAAUAUUACGACGA are -0.509 ± 0.084 and -0.36 ± 0.086.
For CAGAAGCAAUAUUACGUAAA, in that order: -4.01 ± 0.31 and -1.73 ± 0.16.
For GGUCAGCAAUAUUACGUCGA, in that order: -0.64 ± 0.098 and -0.54 ± 0.1.
Consider GGGGAGCAAUAUUACGAACA, for which the “self-splicing fitness (ln)” value is -1.6 ± 0.35 (30 °C) and -0.419 ± 0.28 (37 °C).
Turning to CAUGAGCAAUAUUACGCCAU, the “self-splicing fitness (ln)” value (30 °C) is -3.43 ± 0.3.
CCCAAGCAAUAUUACGCAUC: the “self-splicing fitness (ln)” value (37 °C) is -1.32 ± 0.21.
Same read-out and setting: then UCGGAGCAAUAUUACGGUUC, with -2.89 ± 0.43.
For GCUGAGCAAUAUUACGUCAA, the “self-splicing fitness (ln)” value (30 °C) is -3.38 ± 0.47.
ACAAAGCAAUAUUACGUUAU: the “self-splicing fitness (ln)” value (30 °C) is -2.81 ± 0.089 and the “self-splicing fitness (ln)” value (37 °C) is -1.5 ± 0.089.
In the same order, the values of CCUAAGCAAUAUUACGUCUG are -2.15 ± 0.2 and -2 ± 0.24.
For UGCCAGCAAUAUUACGCACG, in that order: -1.48 ± 0.2 and -0.233 ± 0.14.
In the same order, the values of GGCUAGCAAUAUUACGUGUA are -0.9 ± 0.093 and -0.236 ± 0.095.
Regarding GAUCAGCAAUAUUACGGUGC, the “self-splicing fitness (ln)” value reads like this: (30 °C) -2.03 ± 0.13; (37 °C) -0.734 ± 0.11.
As to UUUCAGCAAUAUUACGUGUC, the “self-splicing fitness (ln)” value (30 °C) was -3.73 ± 0.18 and the “self-splicing fitness (ln)” value (37 °C) is -2.04 ± 0.15.
Consider AGAUAGCAAUAUUACGUUCU, for which the “self-splicing fitness (ln)” value is -2.38 ± 0.14 (30 °C) and -2.02 ± 0.17 (37 °C).
For UAGUAGCAAUAUUACGCAGA, in that order: -2.43 ± 0.23 and -2.99 ± 0.18.
In the same order, the values of AACGAGCAAUAUUACGGAAG are -2.67 ± 0.16 and -2.45 ± 0.28.
